For the assay, the target named is anti-EGFR antibody (Cetuximab). The experiment in a line: cell-based or functional assay.

In patent US20250041418A1 one finds cytotoxic activity (ADCC activity) against A549 cells expressing EGFR, LDH assay, 4 hr co-culture in the presence of Cetuximab (fold against control iNK cells) data, which are given here for one substance.

For “CD16a, exogenously expressed on iNK cells”, the cytotoxic activity (ADCC activity) against A549 cells expressing EGFR, LDH assay, 4 hr co-culture in the presence of Cetuximab (fold against control iNK cells) is 2.
